{"source": "paper PMC4424056", "key": {"[1]": {"target": "integrin αIIb cytoplasmic tail (αIIb CT, W988-E1008) (human) (UniProt P08514)", "sequence (P08514 1019-1039)": "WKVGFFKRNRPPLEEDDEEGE"}, "[2]": {"target": "integrin αIIb cytoplasmic tail (αIIb CT, W988-E1008) (human) (UniProt P08514)", "experiment": "SPR"}}, "data": [{"substance": "filamin A immunoglobulin repeat 21 (FLNa-Ig21) (from UniProt P21333 2236-2330) (domain or fragment)", "values": [{"measurement": "inhibition by FLNa-Ig21 of the PAC1 binding of WT αIIbβ3 in CHO cells", "setting": "[1]", "result": 40, "unit": "%"}, {"measurement": "Kd", "setting": "[2]", "result": 229, "unit": "µM"}]}]}
